What was measured:
[1] = target: T1, c-Fms kinase in the U2OS-GFP-STAT1/CSF-1R cells (Homo sapiens, UniProt P07333); test: Dose-effect of hrM-CSF inducing GFP-STAT1 nuclear translocation in U2OS-GFP-STAT1/CSF-1R cells; assay type: cell-based; settings: 30 minutes
T1 construct: comprising full-length cDNA of human c-Fms; expressed in transfected cells; host or cells: human osteosarcoma U2OS cells stably expressing GFP-STAT1 (U2OS-GFP-STAT1/CSF-1R)
Method: In order to quantitatively detect the extent of nuclear translocation of GFP-STAT1 induced by hrM-CSF, in this Example, in Cell Analyzer 1000 or In Cell Analyzer 2000 was used to obtain the cell image of GFP-STAT1 nuclear translocation. The cell image obtained was analyzed by using Nuclear Trafficking Analysis Module, wherein the translocation index represents the extent of nuclear translocation of GFP-STAT1. Translocation index equals to the ratio of the mean fluorescence intensity of nucleus to the mean fluorescence intensity of cytoplasm of the cells obtained per well. The steps were as follows: • 1) seeding the cells to a 96-well culture plate (which was black and transparent at the bottom), culturing in an incubator at 37° C., 5% CO2, 80% humidity for 24 hours; • 2) washing the cell twice with serum-free DMEM medium that contains 4500 mg/L glucose, 4 mM L-glutamine, 0.2% BSA and 10 mM HEPES (hereafter referred to as cell analytic liquid), wherein the cell analytic liquid was added at 100 μL/well for each time; after that, adding 50 μL cell analytic liquid to each well; • 3) adding the cell analytic liquid that contains hrM-CSF at 50 μL/well, […], and incubating the cells in an incubator at 37° C. for 30 minutes; • 4) fixing the cells with 8% formaldehyde diluted with 1×PBS solution and preheated at 37° C. at 100 μL/well, and placing the plate in dark at room temperature for 20 minutes; • 5) discarding the cell fixation solution, adding 1×PBS solution that contains hoechst33342 at 200 μL/well, placing the plate in dark at room temperature for 30 minutes; • 6) obtaining the cell image by using In Cell Analyzer 1000, analyzing the extent of nuclear translocation of GFP-STAT1 by using Nuclear Trafficking Analysis Module. […]

[2] = target: T1, c-Fms kinase in the U2OS-GFP-STAT1/CSF-1R cells; test: Effect of the time for treating cells with hrM-CSF on GFP-STAT1 nuclear translocation; assay type: cell-based; settings: 200 ng/mL hrM-CSF; 0-60 minutes
Method: The steps were as follows: • 1) using the cells prepared in the example 1 to prepare a cell suspension of 1×10^5 cells/mL, seeding the cells to a 96-well culture plate (which was black and transparent at the bottom) at 100 μL/well; and culturing the cells in an incubator at 37° C., 5% CO2, 80% humidity for 24 hours; • 2) washing the cells twice with the cell analytic liquid at 100 μL/well for each time, discarding the solution, and adding the cell analytic liquid at 50 μL/well; • 3) adding hrM-CSF diluted with the cell analytic liquid every 5 minutes, to obtain a final concentration of 200 ng/mL, setting the cell analytic liquid containing no hrM-CSF as the control, incubating the cells in an incubator at 37° C., and treating the cells with the cytokine for 0, 5, 10, 15, 20, 25, 30, 35, 40, 45, 50, 55, 60 minutes, respectively; • 4) adding the cell fixation solution preheated at 37° C. at 100 μL/well, slightly shaking the culture plate to mix the mixture uniformly, and placing the plate in dark at room temperature for 20 minutes; • 5) discarding the solution, adding 1×PBS solution that contains hoechst33342 at 200 μL/well, and placing the plate in dark at room temperature for 30 minutes; and • 6) obtaining the cell image by using In Cell Analyzer 2000, and analyzing the extent of nuclear translocation of GFP-STAT1 by using Nuclear Trafficking Analysis Module.

T1 sequence (P07333 20-972): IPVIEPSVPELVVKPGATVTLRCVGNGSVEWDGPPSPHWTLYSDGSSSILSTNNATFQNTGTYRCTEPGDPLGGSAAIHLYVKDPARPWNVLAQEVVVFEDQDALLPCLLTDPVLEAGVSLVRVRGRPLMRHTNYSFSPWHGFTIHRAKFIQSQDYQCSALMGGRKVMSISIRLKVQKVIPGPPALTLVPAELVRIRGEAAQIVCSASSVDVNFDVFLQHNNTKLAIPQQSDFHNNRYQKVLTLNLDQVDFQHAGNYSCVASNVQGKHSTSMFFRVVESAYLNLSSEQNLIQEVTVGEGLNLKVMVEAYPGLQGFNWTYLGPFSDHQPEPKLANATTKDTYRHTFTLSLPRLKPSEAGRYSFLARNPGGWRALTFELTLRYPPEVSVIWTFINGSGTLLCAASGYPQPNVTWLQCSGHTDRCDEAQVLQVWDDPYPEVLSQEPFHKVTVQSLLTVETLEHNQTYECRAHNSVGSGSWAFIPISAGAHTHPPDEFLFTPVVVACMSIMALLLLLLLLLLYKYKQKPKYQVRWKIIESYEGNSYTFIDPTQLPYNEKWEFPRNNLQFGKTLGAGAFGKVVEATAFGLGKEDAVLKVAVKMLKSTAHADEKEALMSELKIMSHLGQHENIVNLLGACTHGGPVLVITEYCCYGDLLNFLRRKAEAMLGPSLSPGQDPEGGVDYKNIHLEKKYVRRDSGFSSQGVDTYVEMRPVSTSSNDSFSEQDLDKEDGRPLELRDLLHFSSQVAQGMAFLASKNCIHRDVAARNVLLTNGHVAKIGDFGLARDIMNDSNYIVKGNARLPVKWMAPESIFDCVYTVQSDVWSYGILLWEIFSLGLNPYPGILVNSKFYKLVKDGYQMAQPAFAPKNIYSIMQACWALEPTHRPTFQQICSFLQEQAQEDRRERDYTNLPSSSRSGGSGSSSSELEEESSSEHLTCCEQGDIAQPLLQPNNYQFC

B1: hrM-CSF: recombinantly expressed human M-CSF (macrophage colony stimulating factor), ligand activating c-Fms (protein, UniProt P09603 33-554, looked up)
Macrophage colony-stimulating …: EEVSEYCSHMIGSGHLQSLQRLIDSQMETSCQITFEFVDQEQLKDPVCYLKKAFLLVQDIMEDTMRFRDNTPNAIAIVQLQELSLRLKSCFTKDYEEHDKACVRTFYETPLQLLEKVKNVFNETKNLLDKDWNIFSKNCNNSFAECSSQDVVTKPDCNCLYPKAIPSSDPASVSPHQPLAPSMAPVAGLTWEDSEGTEGSSLLPGEQPLHTVDPGSAKQRPPRSTCQSFEPPETPVVKDSTIGGSPQPRPSVGAFNPGMEDILDSAMGTNWVPEEASGEASEIPVPQGTELSPSRPGGGSMQTEPARPSNFLSASSPLPASAKGQQPADVTGTALPRVGPVRPTGQDWNHTPQKTDHPSALLRDPPEPGSPRISSLRPQGLSNPSTLSAQPQLSRSHSSGSVLPLGELEGRRSTRDRRSPAEPEGGPASEGAARPLPRFNSVPLTDTGHERQSEGSFSPQLQESVFHLLVPSVILVLLAVGGLLFYRWRRRSHQEPQRADSPLEQPEGSPLTQDDRQVELPV
[1]
  concentration of hrM-CSF at which extent of nuclear translocation of GFP-STAT1 reached the maximum: 600 ng/mL
  concentration of hrM-CSF at which nuclear translocation of GFP-STAT1 began: 10 ng/mL
[1]; n=6
  median effective concentration (EC50) of hrM-CSF for inducing GFP-STAT1 nuclear translocation: 0.0435 ± 0.00368 µg/mL
[2]
  treatment time at which extent of GFP-STAT1 nuclear translocation reached the maximum: 30 min

— patent US9683988B2, “Cell model and method for screening c-Fms kinase inhibitors” (Institute of Pharmacology and Toxicology Academy of …, priority 2011, dated 2017)
